Reference: the supplement of paper PMC12764529
± gives the half width of the 95% confidence interval.

Assays:
[1] = folding stability dG unfold from trypsin proteolysis; higher = more stable
Outline: (§1)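 K50 was inferred by Bayesian fitting of sequencing counts obtained after protease digestion of designed mini-proteins. Unfolding free energy was derived by comparison with a sequence-predicted unfolded-state K50 and a shared folded-state K50, for each protease or both combined. The mini-proteins were under 80 residues, had no cysteine, were carried in a PA-tagged cDNA display construct, and were kept only if AlphaFold2 dimer inter-PAE exceeded 15.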

[2] = folding stability dG unfold from chymotrypsin proteolysis; higher = more stable
Outline: as §1

[3] = folding stability dG unfold (combined trypsin and chymotrypsin); higher = more stable
Outline: as §1

Row | Sequence | folding stability dG unfold [1] | folding stability dG unfold [2] | folding stability dG unfold [3]
1 | SAGMEIKYTITVSLSSGQTLGTKTITDPGKSIEEIVKEFAKIPGLTLITVTVTNPDGTPTTVTIPVNPSAGG [r19_269_JUSTAS] | 2.24 ± 0.059 kcal/mol | 3.072 ± 0.022 kcal/mol | 2.79 ± 0.051 kcal/mol
2 | SAGMEITTVTLPDGTKLITITLPVPGGPSITADVPYDPATGKVTLLKITGEDPALEALAKEAVEKLKKESAG [r5_266_JUSTAS] | 0.68 ± 0.032 kcal/mol | 1.17 ± 0.053 kcal/mol | 1.09 ± 0.11 kcal/mol
3 | SAGMEITVPGPFLSQEVFDLPDRPYLVLPTPEGIAVIDLVTGEAVFYPFGTTEPIVVPVPPGEELDLLSAGG [r19_138_TrMRF] | 1.73 ± 0.091 kcal/mol | 1.97 ± 0.042 kcal/mol | 1.83 ± 0.088 kcal/mol
4 | SAGMEKVKLTFKTEDGSEVEIEIVKNEDGSYFVKVKVDKENQEIYVFNADGELIEKIKVKSLEDALKALSAG [r5_757_TrROS_Hall] | 1.69 ± 0.063 kcal/mol | 3.19 ± 0.052 kcal/mol | 2.73 ± 0.12 kcal/mol
5 | SAGMEPTTITVDVTIPPEVFARLSEEELKEKVLAELGIPESLPVEVEISRKEVKLDGKTVYVVPMTIVGSAG [r14_334_JUSTAS] | 0.117 ± 0.085 kcal/mol | 0.652 ± 0.11 kcal/mol | 0.407 ± 0.089 kcal/mol
6 | SAGMEPVSIKITKIEKTPENKDYVIVTVTPPDGVPTEIKVPIEFYKSGKLKNATAEELVKLFPEYKLESAGG [r19_74_JUSTAS] | 1.13 ± 0.065 kcal/mol | 2.68 ± 0.045 kcal/mol | 2.28 ± 0.12 kcal/mol
7 | SAGMETVKIKVRVKVTVRERLPDGTVKTREFELTLEIEVEVEPGQTAEELAKKLAEEFNIEEVEIEKVPSAG [r5_994_TrROS_Hall] | 2.57 ± 0.19 kcal/mol | 3.83 ± 0.58 kcal/mol | 3.29 ± 0.38 kcal/mol
8 | SAGMEVEWEIGDADEDGYVRLTVKAVLLIPETGKPVVVEAEIKMPIEELENEEVLKELARKVVEEAEAESAG [r5_964_TrMRF] | 1.4 ± 0.037 kcal/mol | 2.1 ± 0.032 kcal/mol | 1.85 ± 0.086 kcal/mol
9 | SAGMEVKVETVTIEIEVDGKKIEIKVVRVEVRNEDGSIYEFTFIEITVPEDVSEEELRKLLEELGLEPESAG [r5_486_TrROS_Hall] | 2.64 ± 0.12 kcal/mol | 4.1 ± 0.31 kcal/mol | 3.77 ± 0.29 kcal/mol
10 | SAGMFVKIKFKTADKTVEELVKKIKEETGIPENAKITVIAEKSEDEGFVVIIEFDEEEVRDKIKEIVGSAGG [r19_215_TrMRF] | 1.52 ± 0.026 kcal/mol | 1.35 ± 0.062 kcal/mol | 1.45 ± 0.087 kcal/mol
11 | SAGMGATLVSESEEEIDSSGVRKLTYRSPGSLLVETLYPDGTVPVYVIDPSTGKVVEERVFHVPPDVPLSAG [r14_676_JUSTAS] | 0.179 ± 0.13 kcal/mol | 0.166 ± 0.17 kcal/mol | 0.204 ± 0.13 kcal/mol
12 | SAGMIEILELPPNKAIVKIYDPKTGKFEIIEIDFGGKDGKPLSLEELIEKIKKLAKELYPDLEINVTPLSAG [r5_293_TrMRF] | 3.28 ± 0.26 kcal/mol | 1.98 ± 0.063 kcal/mol | 2.61 ± 0.17 kcal/mol
13 | SAGMIEISEEGDTLTVTVPPGVSLEEVREYVEKKYPGMDLQEITETALPDGTTTVTFNVKKNPPSPKLLSAG [r5_110_JUSTAS] | -0.658 ± 0.37 kcal/mol | 0.699 ± 0.23 kcal/mol | 0.316 ± 0.16 kcal/mol
14 | SAGMIEITLYPPKAVVDVTVTIGGESESRTIPVDGKSKEEVIEEAREEVKAEYPDKAITTKVTEVPGDGSAG [r5_180_JUSTAS] | -0.437 ± 0.18 kcal/mol | 1.03 ± 0.098 kcal/mol | 0.641 ± 0.071 kcal/mol
15 | SAGMIKPEEIVEKVKAIFEEEGLENVTVKVYYDEETDEIFVEVEVELEPEEEEKAQAILDKIKKELGLESAG [r5_9_TrMRF] | 3.02 ± 0.29 kcal/mol | 2.38 ± 0.23 kcal/mol | 2.85 ± 0.21 kcal/mol
16 | SAGMIKVEVVVPPEDPSKPPSEEELRALAEEVVRELGLDPAKHPIEIKREVVDPEKGVLRYTITVKLPSAGG [r19_244_JUSTAS] | 3.09 ± 0.092 kcal/mol | 2.87 ± 0.069 kcal/mol | 2.96 ± 0.11 kcal/mol
17 | SAGMIKVEVYTLDPNGVLTKETYEIPLLPGTPIEEVVNELTEPGTGAVEIVEYNPPPPEIKIKIVRFPASAG [r5_227_TrMRF] | 1.48 ± 0.43 kcal/mol | 2.94 ± 0.09 kcal/mol | 2.49 ± 0.23 kcal/mol
18 | SAGMILPPNTVVTLSTTTTEELPLFTDGSGPRTTTTETVVTVEPVPVNPYPDPAVREKLLAEGKPLELLSAG [r5_624_JUSTAS] | -0.513 ± 0.13 kcal/mol | -0.207 ± 0.13 kcal/mol | -0.265 ± 0.12 kcal/mol
19 | SAGMIRIIVDGKEVEEIEMSEEELRALLADPNIKKARVFVNGEEKEVEVKEGEIKEKLPPGAVIRIEKSAGG [r19_152_TrROS_Hall] | 1.45 ± 0.061 kcal/mol | 2.04 ± 0.031 kcal/mol | 1.79 ± 0.12 kcal/mol
20 | SAGMITPEELEERIRKLAEETGGPRYRVKVRGPDGPLYEFEVGFTPEEIERLAKELGVDIVEVEPIPESAGG [r19_50_TrMRF] | 2.97 ± 0.085 kcal/mol | 3.07 ± 0.13 kcal/mol | 3 ± 0.11 kcal/mol
21 | SAGMKIKITLPNGAEFESNPETGKIEVIDPETGKPLIAYIPKDRPDIAFIFDPDNPKPLFEVKIDEIYPSAG [r5_761_TrMRF] | 0.889 ± 0.016 kcal/mol | 1.27 ± 0.042 kcal/mol | 1.11 ± 0.051 kcal/mol
22 | SAGMKIRILILGKGDPAQVEALAKELEAKLKEELGTEDVEVETLPASLTEEAAEERAKEEKVDIVVYESAGG [r19_89_JUSTAS] | 0.85 ± 0.045 kcal/mol | 1.08 ± 0.13 kcal/mol | 0.99 ± 0.09 kcal/mol
23 | SAGMKITVKAVLKKGEKEYEVEFEADSLEEIIGAILELYEKLNFDELRVKIKIGDKEYEIELPFLIPDESAG [r5_946_TrMRF] | 4.28 ± 0.41 kcal/mol | 4.2 ± 0.68 kcal/mol | 4.24 ± 0.94 kcal/mol
24 | SAGMKKLPSEEERKKAEELAKKGELVIIIRLKNGEKLVIVVKSEEELKELLKKLPLEIEEIYVFKVKKKSAG [r5_481_TrROS_Hall] | 1.72 ± 0.028 kcal/mol | 2.26 ± 0.049 kcal/mol | 2.07 ± 0.16 kcal/mol
25 | SAGMKKTITIKIEVPEKPIRIIVEKNGKKEEITIKPGETVTIEIELEPGETLRIRIVNEDGEEFEFEIKSAG [r5_187_TrROS_Hall] | 4.15 ± 0.3 kcal/mol | 3.45 ± 0.12 kcal/mol | 3.68 ± 0.28 kcal/mol
26 | SAGMKKVEIVEEVKDPETNEPVILVRDKDTGELVKFHPNGKVTIYDLNDPNKAKVFEAKISDVLEELANSAG [r5_491_TrMRF] | 0.622 ± 0.071 kcal/mol | 1.28 ± 0.19 kcal/mol | 0.847 ± 0.21 kcal/mol
